Data on two molecules can be found in publication PMC9045774, “The prominent role of a CDR1 somatic hypermutation for convergent IGHV3-53/3-66 antibodies in binding to SARS-CoV-2” (Emerging Microbes & Infections, 2022).

For this assay, the target named is T1, SARS-CoV-2 receptor-binding domain (RBD) (SARS-CoV-2, ancestral (Wuhan-Hu-1) …, UniProt P0DTC2).
T1 construct: also called SARS-CoV-2 RBD
In words: not stated; binding affinities of the residue-27 germline revertants of BD-236, COVOX-222 and CV30 (supplementary Fig. S5); method not named in the sentence (BLI in the experiments around it).

B1: BD-236, germline format at residue 27 (reverse mutation) (antibody, V domains shown)
VH: EVQLVESGGGLIQPGGSLRLSCAASGFTVSSNYMSWVRQAPGKGLEWVSVIYSGGSTDYADSVKGRFTISRDKSKNTLYLQMNSLRAEDTAVYYCARDLGEAGGMDVWGQGTTVTVSS
VL: AIQLTQSPSSLSASVGDRVTITCRASQGISSYLAWYQQKPGKAPKLLIYAASTLQSGVPSRFSGSGSGTDFTLTISSLQPEDFATYYCQQLNSYPPAFGGGTKVEIK
notes: as the heavy chain of m10 (PDB 7CHB) with residue 27 reverted to the germline F; as the light chain of m10
B1: the “fold decrease of affinity against BD-236” value stood at 1.37 fold.

B2: COVOX-222, germline format at residue 27 (reverse mutation) (antibody, V domains shown)
VH: EVQLVESGGGLIQPGGSLRLSCAASGFTVSSNYMSWVRQAPGKGLEWVSVIYSGGSTFYADSVKGRFTISRDNSKNTLYLQMNSLGAEDTAVYYCARGEGSPGNWFDPWGQGTLVTVSS
VL: DVVMTQSPGTLSLSPGERATLSCRASQSVPSSYLAWYQQKPGQAPRLLIYGASTRATGIPDRFSGSGSGTDFTLTISRLEPEDFAVYYCQHYDTSPRFGGGTKVDIK
notes: as the heavy chain of m12 (PDB 7NX6) with residue 27 reverted to the germline F; as the light chain of m12; also called germline format of COVOX-222
With B2, the “fold decrease of affinity against COVOX-222” value was determined as 2.02 fold.
